Molecular target: T1, ScbR (Streptomyces coelicolor A3(2) M145) (UniProt Q7AKF1)
T1 sequence: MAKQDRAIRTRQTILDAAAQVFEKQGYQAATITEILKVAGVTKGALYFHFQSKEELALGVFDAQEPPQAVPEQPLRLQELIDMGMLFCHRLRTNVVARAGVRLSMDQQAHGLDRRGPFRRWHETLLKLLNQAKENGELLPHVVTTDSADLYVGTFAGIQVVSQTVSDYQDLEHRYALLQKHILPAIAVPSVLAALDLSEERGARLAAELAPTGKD
Test: DNase I footprinting
Settings: EMSA: 6-12 ng probe, ScbR 0.21-3.77 uM, ScbR2 0.207-4.15 uM; buffer, salt, pH and temperature not in material (as described in earlier work)

Which binding does the source give for “CCCTCATGTCCGAACAGCTCGACACCGCCGTCGAAACAGACGGCAAGGGCGACCTCGCCACGTTGTTCAACGGTGGGGACACCTTCTCCCATTGAAAACCGGCGAGGAGGTTTGTTAATCCCATGTTCCCTGGACCGACCTGTTTCGAGATCGAGGAGGACAGTTGAGCGCCACTTCTGCCCCCGCACCCCAGCACGGCATGACCTGGCTGGGAGCCATCGTGGAGGACGGCTTCACGGAGACGTTGCAGGACGGGCTCAG (double strand) [sco6268 promoter footprint probe]” here?
Its binding is “binds”.
